Here are results for 15 molecules from patent EP4737482A1 (Atheon Bio, Inc., dated 2026).

B1: 11B6-z0-uIgG1K (antibody, V domains shown)
VH: EVQLVESGGGLVKPGGSLRLSCAASGFTFSDFGIHWVRQAPGKGLEWVSYISSGSRTIHYADTVKGRFTISRDNAKNSLYLQMNSLRAEDTAVYYCARRDWDPEWLAYWGQGTLVTVSS
VL: DIVMTQSPLSLPVTPGEPASISCRSSLSLVHSNGHTYLHWYLQKPGQSPQLLIYKVSNRFSGVPDRFSGSGSGTDFTLKISRVEAEDVGVYYCSQSTHVPFTFGQGTKLEIK
B2: 11B6-z8-uIgG1K (antibody, V domains shown)
VH: EVQLVESGGGLVKPGGSLRLSCAASGFTFSDFGIHWVRQAPGKGLEWVSYISSGSRTIHYADTVKGRFTISRDNAKNSLYLQMNSLRAEDTAVYYCARRDWDPEWLAYWGQGTLVTVSS
VL: DIVMTQSPLSLPVTPGEPASISCRSSLSLVHSNGHTYLHWYLQKPGQSPQLLIYKVSNRFSGVPDRFSGSGSGTDFTLKISRVEAEDVGVYFCSQSTHVPFTFGQGTKLEIK
B3: 11B6-z6-uIgG1K (antibody, V domains shown)
VH: EVQLVESGGGLVKPGGSLRLSCAASGFTFSDFGIHWVRQAPGKGLEWVSYISSGSRTIHYADTVKGRFTISRDNAKNSLYLQMNSLRAEDTAVYYCARRDWDPEWLAYWGQGTLVTVSS
VL: DIVMTQSPLSLPVTPGEPASISCRSSLSLVHSNGHTYLHWYLQKPGQSPKLLIYKVSNRFSGVPDRFSGSGSGTDFTLKISRVEAEDVGVYYCSQSTHVPFTFGQGTKLEIK
B4: 11B6-z7-uIgG1K (antibody, V domains shown)
VH: EVQLVESGGGLVKPGGSLRLSCAASGFTFSDFGIHWVRQAPGKGLEWVSYISSGSRTIHYADTVKGRFTISRDNAKNSLYLQMNSLRAEDTAVYYCARRDWDPEWLAYWGQGTLVTVSS
VL: DIVMTQSPLSLPVTPGEPASISCRSSLSLVHSNGHTYLHWYLQKPGQSPQLLIYKVSNRFSGVPDRFSGSGSGTDFTLKIRRVEAEDVGVYYCSQSTHVPFTFGQGTKLEIK
B5: 11B6-z5-uIgG1K (antibody, V domains shown)
VH: EVQLVESGGGLVKPGGSLRLSCAASGFTFSDFGIHWVRQAPGKGLEWVSYISSGSRTIHYADTVKGRFTISRDNAKNSLYLQMNSLRAEDTAVYYCARRDWDPEWLAYWGQGTLVTVSS
VL: DVVMTQSPLSLPVTPGEPASISCRSSLSLVHSNGHTYLHWYLQKPGQSPQLLIYKVSNRFSGVPDRFSGSGSGTDFTLKISRVEAEDVGVYYCSQSTHVPFTFGQGTKLEIK
B6: 11B6-p1-uIgG1K (antibody, V domains shown)
VH: EVQLVESGGGLVKPGGSLKLSCAASGFTFSDFGIHWVRQAPEKGLEWVGYISSGSRTIHYADTVKGRFTISRDNAKNTLFLQMTNLRSEDTAIYYCARRDWDPEWLAYWGQGTLVTISA
VL: DVVMTQAPLSLPVSLGDQASISCRSSLSLVHSQGHTYLHWYLQKPGQSPKLLIYKVSNRFSGVPDRFSGSGSGTDFTLKIRRVEAEDLGVYFCSQSTHVPFTFGSGTKLEIK
B7: 11B6-z4-uIgG1K (antibody, V domains shown)
VH: EVQLVESGGGLVKPGGSLRLSCAASGFTFSDFGIHWVRQAPGKGLEWVSYISSGSRTIHYADTVKGRFTISRDNAKNSLYLQMNSLRAEDTAIYYCARRDWDPEWLAYWGQGTLVTVSS
VL: DIVMTQSPLSLPVTPGEPASISCRSSLSLVHSNGHTYLHWYLQKPGQSPQLLIYKVSNRFSGVPDRFSGSGSGTDFTLKISRVEAEDVGVYYCSQSTHVPFTFGQGTKLEIK
B8: 11B6-z3-uIgG1K (antibody, V domains shown)
VH: EVQLVESGGGLVKPGGSLRLSCAASGFTFSDFGIHWVRQAPGKGLEWVSYISSGSRTIHYADTVKGRFTISRDNAKNSLFLQMNSLRAEDTAVYYCARRDWDPEWLAYWGQGTLVTVSS
VL: DIVMTQSPLSLPVTPGEPASISCRSSLSLVHSNGHTYLHWYLQKPGQSPQLLIYKVSNRFSGVPDRFSGSGSGTDFTLKISRVEAEDVGVYYCSQSTHVPFTFGQGTKLEIK
B9: 11B6-z9-uIgG1K (antibody, V domains shown)
VH: EVQLVESGGGLVKPGGSLRLSCAASGFTFSDFGIHWVRQAPGKGLEWVSYISSGSRTIHYADTVKGRFTISRDNAKNSLYLQMNSLRAEDTAVYYCARRDWDPEWLAYWGQGTLVTVSS
VL: DVVMTQSPLSLPVTPGEPASISCRSSLSLVHSNGHTYLHWYLQKPGQSPQLLIYKVSNRFSGVPDRFSGSGSGTDFTLKISRVEAEDVGVYFCSQSTHVPFTFGQGTKLEIK
B10: 11B6-z2-uIgG1K (antibody, V domains shown)
VH: EVQLVESGGGLVKPGGSLRLSCAASGFTFSDFGIHWVRQAPGKGLEWVSYISSGSRTIHYADTVKGRFTISRDNAKNTLYLQMNSLRAEDTAVYYCARRDWDPEWLAYWGQGTLVTVSS
VL: DIVMTQSPLSLPVTPGEPASISCRSSLSLVHSNGHTYLHWYLQKPGQSPQLLIYKVSNRFSGVPDRFSGSGSGTDFTLKISRVEAEDVGVYYCSQSTHVPFTFGQGTKLEIK
B11: 11B6-z1-uIgG1K (antibody, V domains shown)
VH: EVQLVESGGGLVKPGGSLRLSCAASGFTFSDFGIHWVRQAPGKGLEWVGYISSGSRTIHYADTVKGRFTISRDNAKNSLYLQMNSLRAEDTAVYYCARRDWDPEWLAYWGQGTLVTVSS
VL: DIVMTQSPLSLPVTPGEPASISCRSSLSLVHSNGHTYLHWYLQKPGQSPQLLIYKVSNRFSGVPDRFSGSGSGTDFTLKISRVEAEDVGVYYCSQSTHVPFTFGQGTKLEIK
B12: 11B6-z14-uIgG1K (antibody, V domains shown)
VH: EVQLVESGGGLVKPGGSLKLSCAASGFTFSDFGIHWVRQAPEKGLEWVGYISSGSRTIHYADTVKGRFTISRDNAKNTLFLQMTNLRSEDTAIYYCARRDWDPEWLAYWGQGTLVTISA
VL: DVVMTQSPLSLPVTPGEPASISCRSSLSLVHSNGHTYLHWYLQKPGQSPKLLIYKVSNRFSGVPDRFSGSGSGTDFTLKIRRVEAEDVGVYFCSQSTHVPFTFGQGTKLEIK
B13: 11B6-z15-uIgG1K (antibody, V domains shown)
VH: EVQLVESGGGLVKPGGSLRLSCAASGFTFSDFGIHWVRQAPGKGLEWVGYISSGSRTIHYADTVKGRFTISRDNAKNTLFLQMNSLRAEDTAIYYCARRDWDPEWLAYWGQGTLVTVSS
VL: DVVMTQAPLSLPVSLGDQASISCRSSLSLVHSNGHTYLHWYLQKPGQSPKLLIYKVSNRFSGVPDRFSGSGSGTDFTLKIRRVEAEDLGVYFCSQSTHVPFTFGSGTKLEIK
B14: 11B6-p2-uIgG1K (antibody, V domains shown)
VH: EVQLVESGGGLVKPGGSLKLSCAASGFTFSDFGIHWVRQAPEKGLEWVGYISSGSRTIHYADTVKGRFTISRDNAKNTLFLQMTNLRSEDTAIYYCARRDWDPEWLAYWGQGTLVTISA
VL: DVVMTQAPLSLPVSLGDQASISCRSSLSLVHSSGHTYLHWYLQKPGQSPKLLIYKVSNRFSGVPDRFSGSGSGTDFTLKIRRVEAEDLGVYFCSQSTHVPFTFGSGTKLEIK
B15: 11B6-p3-uIgG1K (antibody, V domains shown)
VH: EVQLVESGGGLVKPGGSLKLSCAASGFTFSDFGIHWVRQAPEKGLEWVGYISSGSRTIHYADTVKGRFTISRDNAKNTLFLQMTNLRSEDTAIYYCARRDWDPEWLAYWGQGTLVTISA
VL: DVVMTQAPLSLPVSLGDQASISCRSSLSLVHSNAHTYLHWYLQKPGQSPKLLIYKVSNRFSGVPDRFSGSGSGTDFTLKIRRVEAEDLGVYFCSQSTHVPFTFGSGTKLEIK

This test has as its target T1, human MYCT1 (hMYCT1) (human, UniProt Q8N699 1-235, limits assumed).
T1 construct: also called MYC Target 1
T1 sequence: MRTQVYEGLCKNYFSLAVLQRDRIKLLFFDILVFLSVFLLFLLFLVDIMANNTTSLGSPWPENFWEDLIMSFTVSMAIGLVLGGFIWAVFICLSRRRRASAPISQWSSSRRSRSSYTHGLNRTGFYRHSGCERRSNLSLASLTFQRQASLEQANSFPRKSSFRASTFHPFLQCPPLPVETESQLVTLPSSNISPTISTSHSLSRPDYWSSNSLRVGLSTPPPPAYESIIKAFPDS
Kind of test: SPR koff ranking, single curve, antibody captured via anti-human Fc IgG, 10 nM MYCT1 as analyte, 1:1 binding model.
Molecule B1 had a koff of 0.0624 s⁻¹.
The result for B2 reads 0.0324 s⁻¹; that for B3, 0.0377 s⁻¹; that for B4, 0.0473 s⁻¹.
Under B5 stands 0.0521 s⁻¹.
The result for B6 reads 0.00933 s⁻¹.
In the case of B7, the koff came to 0.0476 s⁻¹.
Under B8 stands 0.0659 s⁻¹; under B9, 0.0311 s⁻¹.
The result for B10 reads 0.056 s⁻¹; that for B11, 0.0169 s⁻¹.
The result for B12 reads 0.0052 s⁻¹; that for B13, 0.00906 s⁻¹.
Molecule B14 had a koff of 0.00691 s⁻¹.
Under B15 stands 0.00547 s⁻¹.
